Laboratory results reported in paper PMC6695498, “Arkadia/RNF111 is a SUMO-targeted ubiquitin ligase with preference for substrates marked with SUMO1-capped SUMO2/3 chain” (Nature Communications, 2019).
Several values for one entry are separate records, joined by “and”; a condition that tells them apart may be missing. Identical values can stand only once.

T1: Arkadia SUMO-binding domain (residues 285-416), wild type (mouse, UniProt Q99ML9 285-416)
T1 construct: it holds SIM1, SOB and SIM2; Subcloned into pGEX-TEV/N (TEV site after the thrombin site); also called Arkadia-WT 285-416; SIM domain of Arkadia
T1 sequence (looked up): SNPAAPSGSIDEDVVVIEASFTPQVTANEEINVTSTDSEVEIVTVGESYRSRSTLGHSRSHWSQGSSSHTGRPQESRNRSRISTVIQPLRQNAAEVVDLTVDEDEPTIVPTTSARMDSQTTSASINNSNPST

B1: linear SUMO1-capped SUMO2 dimer (SUMO1-ΔN15 - SUMO2-ΔN11) (other)
chain: KKEGEYIKLKVIGQDSSEIHFKVKMTTHLKKLKESYCQRQGVPMNSLRFLFEGQRIADNHTPKELGMEEEDVIEVYQEQTRSTENNDHINLKVAGQDGSVVQFKIKRHTPLSKLMKAYCERQGLSMRQIRFRFDGQPINETDTPAQLEMEDEDTIDVFQQQTGG
B2: linear SUMO1-capped SUMO2 trimer (SUMO1-ΔN15 - 2xSUMO2-ΔN11) (other)
chain: KKEGEYIKLKVIGQDSSEIHFKVKMTTHLKKLKESYCQRQGVPMNSLRFLFEGQRIADNHTPKELGMEEEDVIEVYQEQTRSTENNDHINLKVAGQDGSVVQFKIKRHTPLSKLMKAYCERQGLSMRQIRFRFDGQPINETDTPAQLEMEDEDTIDVFQQQTRSTENNDHINLKVAGQDGSVVQFKIKRHTPLSKLMKAYCERQGLSMRQIRFRFDGQPINETDTPAQLEMEDEDTIDVFQQQTGG

Molecular target: T1, Arkadia SUMO-binding domain (residues …)
Experiment: ITC; iTC200; ITC buffer (50 mM Tris/HCl pH 7.5, 150 mM NaCl, 2 mM DTT, 5% glycerol), 30 °C; 20-30 injections up to a twofold to threefold molar excess; which partner was in the syringe is not told; single titrations and their mean
Settings: both partners purified

Binder | Kd
B1 | 1400 nM and 3800 nM and 2100 nM
B2 | 3500 nM and 2100 nM and 2300 nM and 1500 nM
